According to publication PMC4495402:

Target: Xenopus histone H3/H4 tetramer (Xenopus), P84233
Experiment: SEC-MALS
Conditions: remark: other sources report otherwise

B1: human Spt2 histone-binding domain 571–685 (hSpt2C), Q68D10 571-685 (domain or fragment)
chain: GPQRLPFPTGYKRQREYEEEDDDDDEYDSEMEDFIEDEGEPQEEISKHIREIFGYDRKKYKDESDYALRYMESSWKEQQKEEAKSLRLGMQEDLEEMRREEEEMQRRRAKKLKRR
  stoichiometry N: 1

B2: SUMO-tagged hSpt2C(571–685), Q68D10 571-685 (domain or fragment)
chain: GPQRLPFPTGYKRQREYEEEDDDDDEYDSEMEDFIEDEGEPQEEISKHIREIFGYDRKKYKDESDYALRYMESSWKEQQKEEAKSLRLGMQEDLEEMRREEEEMQRRRAKKLKRR
  stoichiometry N: 1
